Assay results from publication PMC7031210.

Target: T1, RecA (B. subtilis) (UniProt P16971)
T1 sequence: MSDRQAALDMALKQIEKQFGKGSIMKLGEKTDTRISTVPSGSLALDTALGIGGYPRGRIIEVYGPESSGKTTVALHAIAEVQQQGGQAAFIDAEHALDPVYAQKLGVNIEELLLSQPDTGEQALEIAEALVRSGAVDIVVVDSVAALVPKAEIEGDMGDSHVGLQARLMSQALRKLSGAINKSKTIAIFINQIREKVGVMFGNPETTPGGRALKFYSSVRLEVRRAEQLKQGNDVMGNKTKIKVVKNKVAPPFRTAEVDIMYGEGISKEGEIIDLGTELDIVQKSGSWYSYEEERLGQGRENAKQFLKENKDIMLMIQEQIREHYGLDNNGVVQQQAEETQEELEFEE

maximal rate of ssDNA-dependent ATP hydrolysis of RecA (650 nM) in the presence of RarA K51A (100 nM), coupled spectrophotometric ATPase assay, 5 mM ATP, 30 min at 37°C: 8.8 min⁻¹
B1: RarA K51A (enzyme)
chain: MKPLAYRMRPTKIEDIIGQQHLVAEDKIIGRMVQAKHLSSMILYGPPGIGATSIATAIAGSTSIAFRKLNAVINNKKDMEIVAQEAKMSGQVILILDEVHRLDKGKQDFLLPYLENGMIILIGATTANPYHAINPAIRSRTQIFELEPLTPELIKQALERALHDEHRGLGTYSVSIDDQAMEHFAHGCGGDVRSALNALELAVLSTKESADGEIHITLETAEECLQKKSFSHDKDGDAHYDVLSAFQKSIRGSDANAALHYLARLIEAGDLESIARRLLVIAYEDIGLASPQAGPRVLNAIQTAERVGFPEARIPLANAVIELCLSPKSNSAILAIDEALADIRAGKIGDVPKHLKDAHYKGAQELGRGIDYKYPHNYDNGWVEQQYLPDPLKNKQYYKPKQTGKFESALKQVYDKLMKRK
